Measurements as given in patent publication EP4786499A1 (Guangdong Fapon Biopharma Inc., dated 2026).
Each block holds one binder with its values, some of them ahead of it.

Experiments:
[1] = biological target: T1, human PD1 (human, UniProt Q15116 25-288); assay: FACS on CHO/human PD-1 cells
T1 construct: whole, on cells; also called hPD1; CHO-hPD1

[2] = biological target: T2, mouse PD-1 (mouse, UniProt Q02242 25-288); assay: FACS on CHO/mouse PD-1 cells
T2 construct: whole, on cells; also called CHO/mouse PD-1
T2 sequence (looked up): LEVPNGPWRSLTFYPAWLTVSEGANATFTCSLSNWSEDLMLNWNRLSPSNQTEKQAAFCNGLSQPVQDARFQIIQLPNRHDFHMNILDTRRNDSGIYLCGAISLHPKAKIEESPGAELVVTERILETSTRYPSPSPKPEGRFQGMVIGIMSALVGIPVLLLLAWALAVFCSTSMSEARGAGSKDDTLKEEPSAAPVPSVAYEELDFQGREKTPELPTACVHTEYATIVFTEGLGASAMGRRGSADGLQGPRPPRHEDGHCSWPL

[3] = biological target: T3, cyno IL10R1 (cyno, UniProt A0A2K5WJ66 22-576); assay: FACS on CHO/cyno IL10R1 cells
T3 construct: whole, on cells; also called CHO/cyno IL10R1; monkey IL10R1
T3 sequence: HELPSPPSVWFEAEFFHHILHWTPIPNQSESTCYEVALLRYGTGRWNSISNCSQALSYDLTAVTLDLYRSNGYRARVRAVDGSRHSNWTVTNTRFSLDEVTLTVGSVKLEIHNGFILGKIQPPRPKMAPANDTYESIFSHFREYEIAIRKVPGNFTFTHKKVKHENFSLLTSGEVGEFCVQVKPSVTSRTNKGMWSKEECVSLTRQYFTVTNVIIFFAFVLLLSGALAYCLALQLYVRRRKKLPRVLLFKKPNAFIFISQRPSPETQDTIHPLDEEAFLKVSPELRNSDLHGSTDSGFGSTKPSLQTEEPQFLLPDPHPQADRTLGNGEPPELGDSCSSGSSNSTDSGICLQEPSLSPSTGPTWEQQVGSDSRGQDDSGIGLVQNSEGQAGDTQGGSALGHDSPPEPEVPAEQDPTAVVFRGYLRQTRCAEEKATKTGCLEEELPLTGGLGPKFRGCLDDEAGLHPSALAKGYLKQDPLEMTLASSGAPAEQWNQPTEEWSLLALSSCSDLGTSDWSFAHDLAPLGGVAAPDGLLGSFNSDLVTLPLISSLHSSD

[4] = biological target: T4, human IL10R1 (human, UniProt Q13651 22-578); assay: FACS on CHO/human IL10R1 cells
T4 construct: whole, on cells; also called CHO/human IL10R1
T4 sequence (looked up): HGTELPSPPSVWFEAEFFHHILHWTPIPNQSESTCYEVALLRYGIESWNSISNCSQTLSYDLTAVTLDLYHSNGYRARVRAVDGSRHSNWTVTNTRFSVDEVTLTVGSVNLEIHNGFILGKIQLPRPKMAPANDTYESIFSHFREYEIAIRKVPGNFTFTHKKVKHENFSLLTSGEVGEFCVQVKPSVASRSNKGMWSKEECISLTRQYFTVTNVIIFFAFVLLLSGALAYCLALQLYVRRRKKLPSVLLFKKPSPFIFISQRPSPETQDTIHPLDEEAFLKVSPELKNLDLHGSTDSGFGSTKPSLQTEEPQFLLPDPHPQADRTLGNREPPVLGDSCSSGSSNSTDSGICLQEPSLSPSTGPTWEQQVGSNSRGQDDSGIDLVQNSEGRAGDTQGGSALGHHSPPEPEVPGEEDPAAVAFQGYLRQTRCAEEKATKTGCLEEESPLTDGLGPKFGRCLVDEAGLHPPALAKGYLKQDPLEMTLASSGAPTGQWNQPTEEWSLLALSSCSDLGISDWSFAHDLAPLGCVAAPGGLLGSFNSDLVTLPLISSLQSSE

[5] = biological target: T5, mouse IL10R1 (mouse, UniProt Q61727 17-575); assay: FACS on CHO/mouse IL10R1 cells
T5 construct: whole, on cells; also called CHO/mouse IL10R1
T5 sequence (looked up): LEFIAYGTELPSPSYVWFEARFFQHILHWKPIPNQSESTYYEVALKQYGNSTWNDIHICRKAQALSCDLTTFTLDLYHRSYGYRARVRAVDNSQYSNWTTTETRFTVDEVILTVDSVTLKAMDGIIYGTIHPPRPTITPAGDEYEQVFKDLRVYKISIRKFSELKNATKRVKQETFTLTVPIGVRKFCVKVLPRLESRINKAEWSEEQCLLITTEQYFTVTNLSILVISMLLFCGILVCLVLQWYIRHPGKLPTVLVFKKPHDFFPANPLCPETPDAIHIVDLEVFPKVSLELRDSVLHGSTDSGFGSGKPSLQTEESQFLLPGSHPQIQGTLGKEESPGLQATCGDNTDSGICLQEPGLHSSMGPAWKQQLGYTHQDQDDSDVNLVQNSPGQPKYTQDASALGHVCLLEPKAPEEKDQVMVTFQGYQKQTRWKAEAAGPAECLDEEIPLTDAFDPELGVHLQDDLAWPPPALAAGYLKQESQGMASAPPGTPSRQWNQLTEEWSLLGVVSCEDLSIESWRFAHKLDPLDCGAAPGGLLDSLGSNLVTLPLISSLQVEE

[6] = biological target: T1, human PD1; assay: cell-based or functional assay
[7] = biological target: T6, cyno PD-1 (cyno, UniProt B0LAJ3 25-288); assay: FACS on CHO/cyno PD-1 cells
T6 construct: also called CHO/cyno PD-1; monkey PD-1
T6 sequence (B0LAJ3 entry or part of it limits assumed, form in doubt): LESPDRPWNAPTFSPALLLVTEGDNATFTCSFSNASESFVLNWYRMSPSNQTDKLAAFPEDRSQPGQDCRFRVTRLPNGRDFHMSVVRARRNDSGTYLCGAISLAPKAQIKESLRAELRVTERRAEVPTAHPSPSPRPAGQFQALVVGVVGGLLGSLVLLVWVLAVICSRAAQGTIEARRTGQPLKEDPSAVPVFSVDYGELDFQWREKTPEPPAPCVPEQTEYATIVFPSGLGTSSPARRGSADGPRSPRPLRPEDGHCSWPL

[8] = biological target: T1, human PD1; assay: FACS binding on CHO/human PD-1 cells (Example 12)
[9] = biological target: T1, human PD1; assay: FACS: blocking of human PD-L1-mFC (1 µg/mL) binding to CHO/human PD-1 cells

T1 sequence (Q15116 25-288): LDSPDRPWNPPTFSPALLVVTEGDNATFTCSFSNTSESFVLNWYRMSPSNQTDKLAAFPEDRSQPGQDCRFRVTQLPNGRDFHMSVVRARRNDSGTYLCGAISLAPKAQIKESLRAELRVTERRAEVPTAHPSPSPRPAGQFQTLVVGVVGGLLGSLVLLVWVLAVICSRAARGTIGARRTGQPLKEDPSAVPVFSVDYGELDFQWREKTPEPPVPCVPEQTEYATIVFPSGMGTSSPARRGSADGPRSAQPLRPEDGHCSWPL

binding result [1]: no binding | binding result [2]: no binding | binding result [3]: no binding | binding result [4]: no binding | binding result [5]: no binding
B1: R0862, hIgG1 antibody containing an L234A/L235A mutation (antibody, V domains shown)
VH: QVQLVESGGGVVQPGRSLRLSCAASGFTFSSYGMHWVRQAPGKGLEWVAAIWYDGSNKYYTDSVKGRFTISRDNSKNTLYLQMNSLRAEDTAVYYCARDLRGVMYFDLWGRGTLVTVSS
VL: EIVLTQSPATLSLSPGERATLSCRASQSVSRYLAWYQQKPGQAPRLLIYDASNRATGIPARFSGSGSGTDFTLTISSLEPEDFAVYYCQLRNNWPLTFGGGTKVEIKR
notes: Isotype control; also called ISO-hIgG1.8; copies: 2 + 2

EC50 of luciferase reporter gene activity (CHO-OKT3-hPD-L1 cells + Jurkat-NFAT-luc-hPD-1 cells) [6]: 6.84 nM | EC50 [7]: 3.47 nM | EC50 [1]: 5.47 nM | binding result [2]: no binding | EC50 [8]: 7.75 nM | IC50 [9]: 8.34 nM
B2: anti-PD1 antibody R1152 (antibody, human IgG1, kappa, L234A L235A, V domains shown)
VH: QVQLVQSGAEVKKPGASVKVSCKASGYTFTTYYMYWVRQAPGQGLEWMGGINPSNGGTNYAQKFQGRATMTVDTSTSTAYMELSSLRSEDTAVYYCTRRDSNYDGGFDYWGQGTTVTVSS
VL: DIQMTQSPSSLSASVGDRVTITCRASKSVSTSGYSYMHWYQQKPGKAPKLLIYLAYHLESGVPSRFSGSGSGTDFTLTISSLQPEDFATYYCQHSWELPITFGQGTKLEIKR
notes: also called PD1 monoclonal antibody R1152; PD-1 parent antibody
